Where two headings read alike, the source gives them in different places. Each block holds one substance with its values, some of them ahead of it.
What was measured:
[1] = target: Pertuzumab kappa light chain S121K_V133G_S176D_T180E; assay: LCCA, SPR tag read-out
[2] = target: CAT-2200 lambda light chain S122D_Y178K; assay: LCCA, SPR tag read-out
[3] = target: Pertuzumab kappa light chain S121K_V133G_S176D_T180E; assay: LCCA, SPR tag read-out; remark: listed apart in the source
[4] = target: Pertuzumab kappa light chain S121K_V133G_S176D_T180E; assay: LCCA, SPR tag read-out; remark: listed apart in the source
[5] = target: CAT-2200 lambda light chain E124Q_T131R; assay: LCCA, SPR tag read-out
[6] = target: CAT-2200 lambda light chain E124Q_T131R; assay: LCCA, SPR
[7] = target: CAT-2200 lambda light chain E124Q_T131R; assay: LCCA, SPR tag read-out; remark: listed apart in the source
[8] = target: Pertuzumab kappa light chain Q124E_V133D; assay: LCCA, SPR
[9] = target: Pertuzumab kappa light chain Q124E_V133D_L135W; assay: LCCA, SPR tag read-out
[10] = target: Pertuzumab kappa light chain Q124E_V133D_T180D; assay: LCCA, SPR tag read-out
[11] = target: Pertuzumab kappa light chain Q124E_V133D_L135W_T180D; assay: LCCA, SPR tag read-out
[12] = target: Pertuzumab kappa light chain Q124R_L135A_T178R; assay: LCCA, SPR tag read-out
[13] = target: CAT-2200 lambda light chain T116F_K129T_V133D_S176F; assay: LCCA, SPR tag read-out
[14] = target: Pertuzumab kappa light chain Q124K_L135A_T178R; assay: LCCA
[15] = target: Pertuzumab kappa light chain Q124R_L135A_Q160K_T178R; assay: LCCA
[16] = target: CAT-2200 lambda light chain S122D_E124Q_T131R; assay: LCCA, SPR tag read-out
[17] = target: Pertuzumab kappa light chain S121K_S176E_T178E; assay: LCCA
[18] = target: Pertuzumab kappa light chain S121K_S131D_V133G_T178F; assay: LCCA, SPR tag read-out
[19] = target: Pertuzumab kappa light chain S121K_V133I_S176D_T178E; assay: LCCA, SPR tag read-out
[20] = target: CAT-2200 lambda light chain S122D_E124Q_T131R; assay: LCCA, SPR tag read-out; remark: listed apart in the source
[21] = target: Pertuzumab kappa light chain Q124E_V133D_S176D_T178E; assay: LCCA
[22] = target: Pertuzumab kappa light chain Q124E_V133D_T178E; assay: LCCA
[23] = target: CAT-2200 lambda light chain Y178K; assay: LCCA
[24] = target: Pertuzumab kappa light chain Q124E_V133D_S176D_T178E; assay: LCCA; remark: listed apart in the source
[25] = target: Pertuzumab kappa light chain Q124E_V133D_T178E; assay: LCCA; remark: listed apart in the source
[26] = target: Pertuzumab kappa light chain Q124E_V133D_S176D_T178E; assay: LCCA, SPR tag read-out
[27] = target: Pertuzumab kappa light chain Q124E_V133D_S176D_T178D; assay: LCCA, SPR tag read-out
[28] = target: Pertuzumab kappa light chain S131K_S176K; assay: LCCA
[29] = target: Pertuzumab kappa light chain S131K_L135W_S176K; assay: LCCA
[30] = target: Pertuzumab kappa light chain S131K_S176K; assay: LCCA; remark: listed apart in the source
[31] = target: Pertuzumab kappa light chain S131K_S176K; assay: LCCA; remark: listed apart in the source
[32] = target: Pertuzumab kappa light chain S131K_S176K; assay: LCCA; remark: listed apart in the source
[33] = target: CAT-2200 lambda light chain, wild type (L1), N-terminal FLAG tag; assay: LCCA, SPR of light chain tags
[34] = target: Pertuzumab kappa light chain S121K_V133G_S176D; assay: LCCA
[35] = target: CAT-2200 lambda light chain S122D_Y178K; assay: LCCA
[36] = target: Pertuzumab kappa light chain S121K_S131K_S176K; assay: LCCA
[37] = target: Pertuzumab kappa light chain S121K_S131K_S176K; assay: LCCA; remark: listed apart in the source
[38] = target: Pertuzumab kappa light chain Q124E_V133G_S176D; assay: LCCA
[39] = target: Pertuzumab kappa light chain Q124E_V133G_S176D_T180E; assay: LCCA
[40] = target: Pertuzumab kappa light chain Q124E_V133G_S176D_T178E_T180E; assay: LCCA
[41] = target: Pertuzumab kappa light chain Q124E_V133G_S176D; assay: LCCA; remark: listed apart in the source
[42] = target: Pertuzumab kappa light chain Q124E_V133G_S176D_T180E; assay: LCCA; remark: listed apart in the source
[43] = target: Pertuzumab kappa light chain S121K_Q124E_V133D; assay: LCCA, SPR tag read-out
[44] = target: Pertuzumab kappa light chain S121K_Q124E_V133D_T180D; assay: LCCA, SPR tag read-out
[45] = target: Pertuzumab kappa light chain V133I_L135A_S176D_T178E; assay: LCCA, SPR tag read-out
[46] = target: Pertuzumab kappa light chain V133G_S176D; assay: LCCA
[47] = target: Pertuzumab kappa light chain V133G_S176D_T180E; assay: LCCA
[48] = target: Pertuzumab kappa light chain V133G_L135W_S176D; assay: LCCA
[49] = target: Pertuzumab kappa light chain V133G_L135W_S176D_T180E; assay: LCCA
[50] = target: CAT-2200 lambda light chain Y178K; assay: LCCA; remark: listed apart in the source
[51] = target: Pertuzumab kappa light chain Q124E_S176E_T180E; assay: LCCA
[52] = target: Pertuzumab kappa light chain Q124E_S176E_T178E_T180E; assay: LCCA
[53] = target: Pertuzumab kappa light chain Q124E_S176E_T178D_T180E; assay: LCCA
[54] = target: Pertuzumab kappa light chain V133G_L135A_S176D_T180E; assay: LCCA, SPR tag read-out
[55] = target: Pertuzumab kappa light chain S121K_Q124R_T178R; assay: LCCA, SPR tag read-out
[56] = target: CAT-2200 lambda light chain S122D_K129T_V133D; assay: LCCA, SPR tag read-out
[57] = target: CAT-2200 lambda light chain S122D_K129T_S176E_Y178E; assay: LCCA, SPR tag read-out
[58] = target: CAT-2200 lambda light chain S122D_K129T_S176D_Y178T; assay: LCCA, SPR tag read-out
[59] = target: Pertuzumab kappa light chain S121K_Q124R_T178R; assay: LCCA, SPR tag read-out; remark: listed apart in the source
[60] = target: Pertuzumab kappa light chain S121K_Q124R_T178R; assay: LCCA
[61] = target: CAT-2200 lambda light chain S122D_K129T_S180E; assay: LCCA
[62] = target: Pertuzumab kappa light chain S121K_Q124R_Q160K_T178R; assay: LCCA
[63] = target: Pertuzumab kappa light chain S121K_Q124R_T178R; assay: LCCA, SPR tag read-out; remark: listed apart in the source
[64] = target: CAT-2200 lambda light chain S122D_K129T_S180E; assay: LCCA; remark: listed apart in the source

H2L2:H2L1 median scalar value [1]: 1.83 ln(ratio)
H2L2:H2L1 normalized median ratio [1]: 66%
H2L2:H2L1 normalized median ratio [2]: 34%
H2L2:H2L1 median scalar value [3]: -0.52 ln(ratio)
H2L2:H2L1 median scalar value [4]: -0.49 ln(ratio)
Substance: Pertuzumab Fab heavy chain L124R_S186R_K228D

H2L2:H2L1 normalized median ratio [5]: 11%
H2L2:H2L1 normalized median ratio [6]: 4%
H2L2:H2L1 normalized median ratio [7]: 15%
H2L2:H2L1 normalized median ratio [8]: 96%
H2L2:H2L1 normalized median scalar value ln(r1/f1) [8]: 3.06
H2L2:H2L1 median scalar value [9]: 2.13 ln(ratio)
H2L2:H2L1 normalized median ratio [9]: 89%
H2L2:H2L1 median scalar value [10]: 1.72 ln(ratio)
H2L2:H2L1 normalized median ratio [10]: 85%
H2L2:H2L1 median scalar value [11]: 0.87 ln(ratio)
Substance: Pertuzumab Fab heavy chain L143R

H2L2:H2L1 median scalar value [12]: 0.99 ln(ratio)
H2L2:H2L1 normalized median ratio [12]: 73%
H2L2:H2L1 normalized median ratio [13]: 27%
H2L2:H2L1 median scalar value [14]: -0.51 ln
H2L2:H2L1 median scalar value [15]: -0.29 ln
Substance: Pertuzumab Fab heavy chain L143E_K145T_Q179E_V190F

H2L2:H2L1 normalized median ratio [16]: 53%
H2L2:H2L1 median scalar value [17]: 2.83 ln
H2L2:H2L1 median scalar value [18]: -0.08 ln(ratio)
H2L2:H2L1 normalized median ratio [18]: 47%
H2L2:H2L1 median scalar value [19]: 1.74 ln(ratio)
H2L2:H2L1 normalized median ratio [19]: 85%
H2L2:H2L1 normalized median ratio [20]: 15%
Substance: Pertuzumab Fab heavy chain S188K_K228D

H2L2:H2L1 median scalar value [21]: 1.21 ln
H2L2:H2L1 median scalar value [22]: 1.45 ln
H2L2:H2L1 normalized median ratio [23]: 22%
H2L2:H2L1 median scalar value [24]: -0.02 ln
H2L2:H2L1 median scalar value [25]: 1.31 ln
H2L2:H2L1 median scalar value [26]: 1.21 ln(ratio)
H2L2:H2L1 median scalar value [27]: 0.02 ln(ratio)
Substance: Pertuzumab Fab heavy chain L143R_S188K

H2L2:H2L1 median scalar value [28]: 0.9 ln
H2L2:H2L1 median scalar value [29]: -0.33 ln
H2L2:H2L1 median scalar value [30]: 2.25 ln
H2L2:H2L1 median scalar value [31]: 0.53 ln
H2L2:H2L1 median scalar value [32]: 1.58 ln
Substance: Pertuzumab Fab heavy chain K145T_S186E

H1L1:H1L2 normalized median scalar value ln(r1/f1) [33]: 0.48
Substance: CAT-2200 Fab heavy chain, wild type (H1), ABD2-His6 tagged

H2L2:H2L1 median scalar value [34]: 1.97 ln
H2L2:H2L1 normalized median ratio [34]: 67%
H2L2:H2L1 normalized median ratio [35]: 33%
Substance: Pertuzumab Fab heavy chain L124R_K228D

H2L2:H2L1 median scalar value [36]: 0.33 ln
H2L2:H2L1 median scalar value [37]: 1.21 ln
Substance: Pertuzumab Fab heavy chain K145T_S186E_K228D

H2L2:H2L1 median scalar value [38]: 0.55 ln
H2L2:H2L1 median scalar value [39]: 0.25 ln
H2L2:H2L1 median scalar value [40]: 0.07 ln
H2L2:H2L1 normalized median ratio [40]: 51%
H2L2:H2L1 normalized median ratio [23]: 49%
H2L2:H2L1 median scalar value [41]: 0.45 ln
H2L2:H2L1 median scalar value [42]: 0.35 ln
Substance: Pertuzumab Fab heavy chain L124R_L143K

H2L2:H2L1 normalized median ratio [16]: 26%
H2L2:H2L1 median scalar value [43]: 1.08 ln(ratio)
H2L2:H2L1 normalized median ratio [43]: 74%
H2L2:H2L1 median scalar value [44]: -0.2 ln(ratio)
Substance: Pertuzumab Fab heavy chain L143R_K228D

H2L2:H2L1 median scalar value [45]: 0.88 ln(ratio)
Substance: Pertuzumab Fab heavy chain S188K_V190F

H2L2:H2L1 median scalar value [46]: 2.2 ln
H2L2:H2L1 normalized median ratio [23]: 9%
H2L2:H2L1 median scalar value [47]: 2.34 ln
H2L2:H2L1 normalized median ratio [47]: 91%
H2L2:H2L1 median scalar value [48]: 0.55 ln
H2L2:H2L1 median scalar value [49]: 0.29 ln
Substance: Pertuzumab Fab heavy chain L124R

H2L2:H2L1 normalized median ratio [50]: 8%
H2L2:H2L1 median scalar value [51]: 2.76 ln
H2L2:H2L1 normalized median ratio [23]: 12%
H2L2:H2L1 median scalar value [52]: 2.48 ln
H2L2:H2L1 normalized median ratio [52]: 92%
H2L2:H2L1 median scalar value [53]: 2.01 ln
H2L2:H2L1 normalized median ratio [53]: 88%
Substance: Pertuzumab Fab heavy chain Q179K_S188K

H2L2:H2L1 median scalar value [54]: -0.44 ln(ratio)
Substance: Pertuzumab Fab heavy chain L124R_S186K_V190F

H2L2:H2L1 median scalar value [55]: 3.5 ln(ratio)
H2L2:H2L1 normalized median ratio [55]: 95%
H2L2:H2L1 normalized median ratio [56]: 34%
H2L2:H2L1 normalized median ratio [57]: 5%
H2L2:H2L1 normalized median ratio [58]: 8%
H2L2:H2L1 median scalar value [59]: 2.56 ln(ratio)
H2L2:H2L1 normalized median ratio [59]: 92%
H2L2:H2L1 median scalar value [60]: 0.72 ln
H2L2:H2L1 normalized median ratio [60]: 67%
H2L2:H2L1 normalized median ratio [61]: 33%
H2L2:H2L1 median scalar value [62]: 1.15 ln
H2L2:H2L1 normalized median ratio [62]: 75%
H2L2:H2L1 median scalar value [63]: 1.1 ln(ratio)
H2L2:H2L1 normalized median ratio [63]: 66%
H2L2:H2L1 normalized median ratio [64]: 25%
Substance: Pertuzumab Fab heavy chain L143E_K145T_Q179E_K228D
